The record followed here is patent US20220403048A1, “BINDING MOLECULES TO ARGINASE II [ARG2]” (Cancer Research Technology Limited, priority 2019, published 2022).

This experiment deals with recombinant human trimeric ARG2 enzyme (construct not given) (human) (UniProt P78540). Kind of experiment: cell-based or functional assay.
Sequence of recombinant human trimeric ARG2 enzyme (construct not given) (human) (P78540 23-354, form in doubt): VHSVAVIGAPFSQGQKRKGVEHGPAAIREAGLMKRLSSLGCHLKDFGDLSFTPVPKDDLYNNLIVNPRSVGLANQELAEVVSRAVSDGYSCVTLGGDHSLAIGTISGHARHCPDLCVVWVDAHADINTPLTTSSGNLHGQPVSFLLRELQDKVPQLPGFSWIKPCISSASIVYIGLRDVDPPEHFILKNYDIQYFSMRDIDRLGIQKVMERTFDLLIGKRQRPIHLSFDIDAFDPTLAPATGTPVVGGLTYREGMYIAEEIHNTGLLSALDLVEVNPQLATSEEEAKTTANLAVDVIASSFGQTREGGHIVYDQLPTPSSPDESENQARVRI

In the case of NIP228 human IgG1 (antibody), the EC50, In Presence of rhARG2 (T cell proliferation) is greater than 2000 nM and the Maximum % Proliferation, In Presence of rhARG2 was determined as 7%.
